Like-named read-outs stand apart in the source and are kept apart here.

Data set [1] is described as follows: Equilibrium denaturation of FKBP-12 proteins by GdnHCl, capillary method. The data set is classed as physicochemical. As to the method: Samples were measured and averaged for 100 laser pulses. […] Error bars shown are standard deviations.
(§1) The experimental detail was as set out below:
(§2) Equilibrium denaturation of wild-type FKBP-12: 50 μl, of FKBP-12 stock (50 μM FKBP-12, 5 mM DTT, 50 mM Tris.HCl, pH 7.5) was added to each well of a UV transparent Costar (Corning, Lowell, Mass., USA) 96-well plate. […] Samples were sealed and equilibrated for 17 hours at 22° C. prior to measurement of intrinsic protein fluorescence in a Fluostar Optima plate reader as above. The same samples were then used to measure intrinsic protein fluorescence in the micro-capillary device for a direct comparison.
(§3) Data for the observed fluorescence (Fobs) as a function of denaturant concentration ([D]) were fit using SigmaPlot 10.0 (Systat Software, Hounslow, UK) to the equation below: […]
(§4) The free energy of protein denaturation in water ΔGH2O was calculated as mGC1/2, using the fitted mG, where we set the denaturant dependent free energy (ΔGobs) to zero in the equation below when [D] is equal to C1/2. ΔGobs=ΔGH2O+mG[D] Values of ΔGH2O were used to calculate the change in free energy of the mutant or ligand bound protein, ΔΔGX-WT, relative to un-liganded wild-type FKBP-12. The change in free energy of unfolding upon ligand binding, ΔΔGbinding, was calculated for each mutant from the values of ΔGH2O for liganded FKBP-12 relative to ΔGH2O for non-liganded FKBP-12.

Data set [2] is described as follows: Equilibrium denaturation of FKBP-12 proteins by GdnHCl, microplate method. It counts as physicochemical. As to the method: as §1, §2, §3, §4
Data set [3] is described as follows: Example 1 GdHCl denaturation of FKBP-12, capillary intrinsic fluorescence. The data set is classed as physicochemical. To be noted: 2 μM FKBP-12, GdHCl, 1 mM DTT, 50 mM Tris.HCl pH 7.5, 20° C.
Source text: The configuration comprises a laser 5 (QUV266-02, Crystalaser, Reno, Nev.) of wavelength 266 nm, 5 mW, pulsed at 1 kHz; a bandpass filter (newport), at 266 nm 15; a converging lens (SPX010AR.10, Newport) 16; a 100 μm internal diameter capillary (FS-110, Upchurch™) 1; and a photo multiplier tube (R1166PMT, Hamamatsu, Japan) 7; linked to a data acquisition system consisting of a PC expansion card (PXI-5124, National Instruments), for capture and analysis of the data in Labview (National Instruments). […] Samples were measured and averaged for 100 laser pulses. […] A fluorescence relative intensity of 1500 at a concentration of 0 mg ml^−1 of BSA corresponds to the background signal of the setup generated by excitation radiation.
The denaturation experiment was repeated for another protein using 2 μM FKBP-12. […] The stability was measured using the denaturant guanidinium hydrochloride (GdHCl) in 1 mM dithiothreitol (DTT), 50 mM Tris.HCl at pH 7.5 and at 20° C., using a flow rate of 10 μL/min through the capillary. The fluorescence of FKBP with various concentrations of GdHCl (from 0M to 3M) was measured. […] C1/2 represents the denaturant concentration at which half of the protein is in the unfolded state.
The conditions of data set [4]: Literature, cited from earlier work.
[5] abbreviates: GdnHCl, 50 mM Tris.HCl pH 7.5, 1 mM DTT.
Where [6] appears, read: GdnHCl, mG from each independent curve fit.
[7] abbreviates: GdnHCl, using average mG values.
Setting [8] is: relative to wild-type FKBP-12 without rapamycin, from ΔGH2O.

Consider “FKBP-12 wt: Wild-type FKBP-12 expressed and purified from a GST-FKBP fusion gene in E. coli BL21 cells”, for which the figures for the mG in data set [1] (GdnHCl), in data set [2] (GdnHCl) and in data set [4] (GdnHCl) were 5.4 ± 0.7 kcal mol^−1 M^−1, 6.6 ± 0.4 kcal mol^−1 M^−1 and 6.6 ± 0.3 kcal mol^−1 M^−1, respectively. In addition, the “C1/2 (transition mid-point)” value in data set [1] (setting [5]) is on record as 0.74 ± 0.02 M; in data set [2] (setting [5]) it was 0.77 ± 0.01 M; in data set [4] (GdnHCl), 0.78 ± 0.005 M. For the same substance, the ΔGH2O is 4.03 ± 0.5 kcal/mol in data set [1] (setting [6]), 5.05 ± 0.3 kcal/mol in data set [2] (setting [6]) and 5.13 ± 0.2 kcal/mol in data set [4] (GdnHCl). The “ΔG<mG>” value stood at 3.84 ± 0.3 kcal/mol in data set [1] (setting [7]) and 4.72 ± 0.3 kcal/mol in data set [2] (setting [7]). Further, the ΔΔGX-WT in data set [1] (setting [8]), in data set [2] (setting [8]) and in data set [4] (relative to wild-type FKBP-12 without rapamycin) was 0 kcal/mol throughout. Besides, the “mid-point of denaturation (C1/2), absence of rapamycin” value in data set [3] is on record as 0.65 M.

Source of the values: patent US9347884B2, “Microfluidic device with direct sample heating via electromagnetic radiation” (UCL BUSINESS PLC, priority 2009, dated 2016).
